Data taken from the Human Domainome abundance scans (Beltran et al. 2025).
± gives the uncertainty stated by the source.

B1: Zinc finger homeobox protein 3, residues 2643 to 2698; numbered along this chain, Q15911 (parent)
chain: RLRTTITPEQLEILYQKYLLDSNPTRKMLDHIAHEVGLKKRVVQVWFQNTRARERK

Variants of: B1
Experiment: abundance fitness (aPCA) (normalised: wild type 0, dead -1); higher = more abundant; growth selection in yeast, the domain comes from the species named
Details: Homo sapiens

First: RLRTTITPEQLEILYQKYLLSSNPTRKMLDHIAHEVGLKKRVVQVWFQNTRARERK
Second: RLRTTITPEQLEILYQKYLLDSNPTRKMLDHIAHEVGLKKHVVQVWFQNTRARERK
The abundance fitness of the first is lower: -0.417 ± 0.11 for the first, 0.031 ± 0.19 for the second.

RLRTTITPEQLEILYQKYLLDSNPTRKMLDHIAHEVGLKKCVVQVWFQNTRARERK and RLRTTITPEQLEILYQKYLLDSNPTRKMLDHIAHEVGLKKIVVQVWFQNTRARERK are within error of each other in abundance fitness: 0.256 ± 0.12 for the first, 0.544 ± 0.18 for the second.

RLRTTITPMQLEILYQKYLLDSNPTRKMLDHIAHEVGLKKRVVQVWFQNTRARERK and RLRTTITPTQLEILYQKYLLDSNPTRKMLDHIAHEVGLKKRVVQVWFQNTRARERK are within error of each other in abundance fitness: -0.272 ± 0.1 for the first, -0.211 ± 0.085 for the second.

Going from RLRTTITPHQLEILYQKYLLDSNPTRKMLDHIAHEVGLKKRVVQVWFQNTRARERK to RLRTTITPEQVEILYQKYLLDSNPTRKMLDHIAHEVGLKKRVVQVWFQNTRARERK, the abundance fitness rises from -0.229 ± 0.082 to -0.021 ± 0.076.

Compared with RLRTTITPEQLVILYQKYLLDSNPTRKMLDHIAHEVGLKKRVVQVWFQNTRARERK, RLRTTITPEQLMILYQKYLLDSNPTRKMLDHIAHEVGLKKRVVQVWFQNTRARERK is higher in abundance fitness: -0.396 ± 0.088 for the first, 0.335 ± 0.11 for the second.

Going from RLRTTGTPEQLEILYQKYLLDSNPTRKMLDHIAHEVGLKKRVVQVWFQNTRARERK to RLRTTITPEQLEILYQKYLLDSNPTRKMLDHIAHEVGLKKRVVQVWFQNTRARERE, the abundance fitness rises from -0.543 ± 0.11 to 0.466 ± 0.2.

RLRTTITPEQLEILYQKYLLDSNPTRKMLDHIAHEVGLKKRVVQVWFQNTRARERG and RLRTTITPEQLEILYQKYLLDSNPTRKMLDHIAHEVGLKKRVVQVWFQNTRARERN are within error of each other in abundance fitness: 0.001 ± 0.15 for the first, -0.07 ± 0.21 for the second.

Going from RLRTTITPEQLEILYQKYLLDSNPTRKMLDHIAHEVGLKPRVVQVWFQNTRARERK to RLRTTITPEQLEINYQKYLLDSNPTRKMLDHIAHEVGLKKRVVQVWFQNTRARERK, the abundance fitness falls from 0.258 ± 0.1 to -1.14 ± 0.24.

RLRTTITPEQLEITYQKYLLDSNPTRKMLDHIAHEVGLKKRVVQVWFQNTRARERK and RLRTTITPEQLEIQYQKYLLDSNPTRKMLDHIAHEVGLKKRVVQVWFQNTRARERK are within error of each other in abundance fitness: -1.04 ± 0.17 for the first, -0.895 ± 0.14 for the second.

RLRTTITPELLEILYQKYLLDSNPTRKMLDHIAHEVGLKKRVVQVWFQNTRARERK and RLRTTITPEQLEILYQKYLLDSNPTRKMLCHIAHEVGLKKRVVQVWFQNTRARERK are within error of each other in abundance fitness: -0.646 ± 0.072 for the first, -0.486 ± 0.14 for the second.

Compared with RLRTTITPEQLEILYQKYLLDSNPTRKMLSHIAHEVGLKKRVVQVWFQNTRARERK, RLRTTITPEQLEILYQKYLLDSNPTRKMLLHIAHEVGLKKRVVQVWFQNTRARERK is lower in abundance fitness: -0.108 ± 0.085 for the first, -0.435 ± 0.099 for the second.

Going from RLRRTITPEQLEILYQKYLLDSNPTRKMLDHIAHEVGLKKRVVQVWFQNTRARERK to RLRPTITPEQLEILYQKYLLDSNPTRKMLDHIAHEVGLKKRVVQVWFQNTRARERK, the abundance fitness rises from -0.576 ± 0.095 to 0.149 ± 0.13.

Compared with RLRTTITPEQLEILYQKYLLDSNPTRKMLDHIAHEVGLKKRVVQVWFQNTRAREMK, RLRTTITPEQLEILYQKYLLDSNPTRKMLDHIAHEVGLKKRVVQVWSQNTRARERK is lower in abundance fitness: 0.483 ± 0.21 for the first, -0.946 ± 0.14 for the second.

Going from RLRTTITPEQLEQLYQKYLLDSNPTRKMLDHIAHEVGLKKRVVQVWFQNTRARERK to RLRTTITPEQLEPLYQKYLLDSNPTRKMLDHIAHEVGLKKRVVQVWFQNTRARERK, the abundance fitness falls from -0.095 ± 0.12 to -0.951 ± 0.17.

Going from RLRTTITPEQLEHLYQKYLLDSNPTRKMLDHIAHEVGLKKRVVQVWFQNTRARERK to RLRTTITPEQLEGLYQKYLLDSNPTRKMLDHIAHEVGLKKRVVQVWFQNTRARERK, the abundance fitness falls from 0.067 ± 0.18 to -0.24 ± 0.077.

RLRTTITPEQLEILYQKYLLDSNTTRKMLDHIAHEVGLKKRVVQVWFQNTRARERK and RLRTTITPEQLEILYQKYLLDSNFTRKMLDHIAHEVGLKKRVVQVWFQNTRARERK are within error of each other in abundance fitness: -0.957 ± 0.15 for the first, -0.644 ± 0.17 for the second.

Going from RLRTTITPEQLEILYQKYLLDSNPTNKMLDHIAHEVGLKKRVVQVWFQNTRARERK to RLRTTITPEQLEILYQKYLLDSNPTRKMLDHIAHEVRLKKRVVQVWFQNTRARERK, the abundance fitness falls from 0.339 ± 0.15 to -0.27 ± 0.071.

RLRTTITPEQLEILYQKYLLDSTPTRKMLDHIAHEVGLKKRVVQVWFQNTRARERK and RLRTTITPEQLEILYQKYLLDSNPTRNMLDHIAHEVGLKKRVVQVWFQNTRARERK are within error of each other in abundance fitness: -0.379 ± 0.16 for the first, -0.246 ± 0.18 for the second.

Going from RLRTTITPEQLEILYQKYLLDSNPTRKMLDHIAHEVGLKKRVVQVWFQNTRARMRK to RLRTTITPEQLEILYQKYLLDSNPTRKMLDHIAHEVGLKKRVVQVWFQNTRARRRK, the abundance fitness falls from -0.177 ± 0.09 to -0.701 ± 0.09.

Going from RLRTTITPEQLEILYQKYLLDSNPTRKMLDHIAHEVGLKKRPVQVWFQNTRARERK to RLRTTITPEQLEILYQKYLLDSNPTRKMLDHIAHEVGLKKRIVQVWFQNTRARERK, the abundance fitness rises from -0.932 ± 0.16 to -0.073 ± 0.12.

Compared with RLRTTITPEQLEILYQKYLLDSNPTRKMLDHIAHEVGLKKRVVLVWFQNTRARERK, RLRTTITPEQLEILYQKYLLDSNPTRKMLDHIAHEVGLKKRVVYVWFQNTRARERK is higher in abundance fitness: -0.347 ± 0.082 for the first, -0.114 ± 0.12 for the second.

Compared with RGRTTITPEQLEILYQKYLLDSNPTRKMLDHIAHEVGLKKRVVQVWFQNTRARERK, RLRTTITPEQLEILYQKYLLDSNPTRKMLDHIAHEVGLKKRVVQVWFQNTRTRERK is lower in abundance fitness: 0.136 ± 0.083 for the first, -0.419 ± 0.1 for the second.

Compared with RLRTTITPEQLEILYQKYLLDSNPTRKMLDHIAHEVGLKKRVVQVWFQNTRVRERK, RLRTTITPEQLEILYQKYLLDSNPTRKMLDHIAHEVGLKKRVVQVWFQNTRNRERK is higher in abundance fitness: -0.349 ± 0.082 for the first, 0.062 ± 0.14 for the second.

Variant RLRTTITPEQLEILYQKYLLDSNPTRKMLDHIAHEVGLKKRVVQVWFQNTRANERK has an abundance fitness of 0.172 ± 0.15.
